Experimental data reported in patent US20100317541A1.

Biological target: α3 subunit isoform of Na, K-ATPase (human) (UniProt P13637)
Assay: Western blot of control lysate, antibody at 1:2000, chemiluminescence, band density by Alpha DigiDoc 1000

Substance	Average density
α3 monoclonal antibody from Affinity Bioreagents (Golden, Colo.)	45200
α3 monoclonal antibody from Novus (Littleton, Colo.)	41100
α3 monoclonal antibody from Sigma (St Louis, Mo.)	44600
